Blank lines part the entries; values can stand above or below the binder they belong to.
Legend:
CHMP3_S75C = target: T1, CHMP3_S75C (human, UniProt Q9Y3E7 9-183, S75C); assay: cross-linking
T1 sequence (looked up): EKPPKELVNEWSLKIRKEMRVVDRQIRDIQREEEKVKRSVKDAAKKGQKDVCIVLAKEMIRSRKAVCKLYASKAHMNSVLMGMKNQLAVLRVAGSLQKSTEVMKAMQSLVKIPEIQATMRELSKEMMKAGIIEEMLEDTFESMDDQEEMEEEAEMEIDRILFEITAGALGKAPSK

CHMP3_V110C = target: T2, CHMP3_V110C (human, UniProt Q9Y3E7 9-183, V110C); assay: cross-linking
T2 sequence (looked up): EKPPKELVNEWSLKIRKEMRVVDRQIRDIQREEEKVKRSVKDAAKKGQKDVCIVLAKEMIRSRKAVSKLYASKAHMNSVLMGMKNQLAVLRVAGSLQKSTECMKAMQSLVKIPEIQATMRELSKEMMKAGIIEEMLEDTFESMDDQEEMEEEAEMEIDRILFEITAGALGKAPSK

[1] = target: T3, CHMP3 full length (residues 1-222) (human, UniProt Q9Y3E7 1-222); assay: cryo-EM structure
T3 sequence (looked up): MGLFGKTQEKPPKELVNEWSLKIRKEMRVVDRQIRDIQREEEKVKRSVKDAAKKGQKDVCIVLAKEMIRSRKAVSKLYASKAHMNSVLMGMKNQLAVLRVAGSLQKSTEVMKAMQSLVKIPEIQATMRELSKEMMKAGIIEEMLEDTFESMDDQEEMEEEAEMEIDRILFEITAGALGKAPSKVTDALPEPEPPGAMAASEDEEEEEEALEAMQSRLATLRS

cryo-EM structure = target: the molecule itself; assay: cryo-EM structure
[2] = target: T3, CHMP3 full length (residues 1-222); assay: negative staining EM of polymer
[3] = target: T4, CHMP3_K112A, K119A, K132A, K136A (human, UniProt Q9Y3E7 9-183, K112A | K119A | K132A | K136A); assay: negative staining EM of polymer
T4 sequence (looked up): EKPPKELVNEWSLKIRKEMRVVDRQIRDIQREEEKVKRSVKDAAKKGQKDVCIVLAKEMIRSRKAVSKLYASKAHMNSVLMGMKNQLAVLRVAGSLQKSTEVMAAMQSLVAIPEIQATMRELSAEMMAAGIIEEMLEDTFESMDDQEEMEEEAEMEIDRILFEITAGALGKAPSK

binding result (CHMP3_V110C): binds
B2: CHMP2A_N18C (domain or fragment, human, UniProt O43633 9-161, looked up)
chain: KTPEELLRQCQRALNRAMRELDRERQKLETQEKKIIADIKKMAKQGQMDAVRIMAKDLVRTRRYVRKFVLMRANIQAVSLKIQTLKSNNSMAQAMKGVTKAMGTMNRQLKLPQIQKIMMEFERQAEIMDMKEEMMNDAIDDAMGDEEDEEESD

binding result [1]: binds
B3: CHMP2AΔC (C-terminally truncated CHMP2A, residues 1-161), MBP removed (domain or fragment, human, UniProt O43633 1-161, looked up)
chain: MDLLFGRRKTPEELLRQNQRALNRAMRELDRERQKLETQEKKIIADIKKMAKQGQMDAVRIMAKDLVRTRRYVRKFVLMRANIQAVSLKIQTLKSNNSMAQAMKGVTKAMGTMNRQLKLPQIQKIMMEFERQAEIMDMKEEMMNDAIDDAMGDEEDEEESD
binding result (cryo-EM structure): binds

The next lines start with the binder.

B1: CHMP2A_D57C (domain or fragment, human, UniProt O43633 9-161, looked up)
chain: KTPEELLRQNQRALNRAMRELDRERQKLETQEKKIIADIKKMAKQGQMCAVRIMAKDLVRTRRYVRKFVLMRANIQAVSLKIQTLKSNNSMAQAMKGVTKAMGTMNRQLKLPQIQKIMMEFERQAEIMDMKEEMMNDAIDDAMGDEEDEEESD
binding result (CHMP3_S75C): binds

B4: CHMP2AΔC (residues 1-161) wild type, MBP fusion as used for tube formation without membrane coating (domain or fragment, human, UniProt O43633 1-161, looked up)
chain: MDLLFGRRKTPEELLRQNQRALNRAMRELDRERQKLETQEKKIIADIKKMAKQGQMDAVRIMAKDLVRTRRYVRKFVLMRANIQAVSLKIQTLKSNNSMAQAMKGVTKAMGTMNRQLKLPQIQKIMMEFERQAEIMDMKEEMMNDAIDDAMGDEEDEEESD
binding result [2]: binds
binding result [3]: binds
